We go through 3 molecules from publication PMC6511873 (Nucleic Acids Research, 2019).

In assay [1] the target is T1, Recombinant Fc-extracellular domain fusion of human Jagged-2 (Homo sapiens, UniProt Q9Y219). In words: ELISA. On the technique in general: An ELISA detects its analyte on a solid surface through an enzyme-linked reagent.
Assay [2] concerns the target T1, Recombinant Fc-extracellular domain …. In words: ELISA. The source holds these as a separate data set.

T1 sequence (Q9Y219 27-1080): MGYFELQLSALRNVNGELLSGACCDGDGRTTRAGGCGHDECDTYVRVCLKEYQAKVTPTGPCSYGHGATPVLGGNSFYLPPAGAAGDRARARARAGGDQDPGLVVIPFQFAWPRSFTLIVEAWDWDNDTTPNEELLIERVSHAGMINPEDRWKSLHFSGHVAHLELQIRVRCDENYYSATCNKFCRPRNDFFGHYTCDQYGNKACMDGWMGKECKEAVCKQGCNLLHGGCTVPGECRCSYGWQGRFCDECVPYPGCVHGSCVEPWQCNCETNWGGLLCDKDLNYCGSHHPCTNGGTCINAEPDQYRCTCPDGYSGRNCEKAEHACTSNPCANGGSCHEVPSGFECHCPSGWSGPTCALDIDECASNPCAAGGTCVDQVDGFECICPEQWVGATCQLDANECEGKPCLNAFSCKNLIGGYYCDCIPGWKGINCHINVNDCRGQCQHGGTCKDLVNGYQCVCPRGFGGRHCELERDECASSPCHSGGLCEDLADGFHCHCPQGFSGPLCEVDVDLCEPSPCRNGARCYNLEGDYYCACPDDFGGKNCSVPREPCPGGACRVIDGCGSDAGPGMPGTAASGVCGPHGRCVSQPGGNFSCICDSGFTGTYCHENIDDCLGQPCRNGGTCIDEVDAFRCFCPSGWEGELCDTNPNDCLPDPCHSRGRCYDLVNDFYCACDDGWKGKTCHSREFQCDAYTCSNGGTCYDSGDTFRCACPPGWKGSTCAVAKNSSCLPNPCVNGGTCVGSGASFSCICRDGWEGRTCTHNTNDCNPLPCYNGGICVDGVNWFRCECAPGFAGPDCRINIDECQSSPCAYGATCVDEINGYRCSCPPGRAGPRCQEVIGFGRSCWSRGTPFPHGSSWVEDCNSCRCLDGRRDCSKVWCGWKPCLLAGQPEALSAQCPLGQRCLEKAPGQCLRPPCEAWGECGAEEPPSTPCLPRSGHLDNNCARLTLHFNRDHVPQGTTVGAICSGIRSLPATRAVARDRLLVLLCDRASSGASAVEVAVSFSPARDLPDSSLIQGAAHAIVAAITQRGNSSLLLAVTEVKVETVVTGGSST

B1: Fab J2/F/R7 (purified) (Fab, V domains shown)
VH: EVQLVESGGGLVQPGGSLRLSCAASGFNIYSSSMHWVRQAPGKGLEWVAYISPSYSYTYYADSVKGRFTISADTSKNTAYLQMNSLRAEDTAVYYCARSYWYSHYAWWWASYSVVGIDYWGQGTLVTVSS
VL: DIQMTQSPSSLSASVGDRVTITCRASQSVSSAVAWYQQKPGKAPKLLIYSASSLYSGVPSRFSGSRSGTDFTLTISSLQPEDFATYYCQQYASYPITFGQGTKVEIK
B1: the EC50 in assay [1] came to 24.6 nM.

B2: Fab J2/F/R6 (purified) (Fab, V domains shown)
VH: EVQLVESGGGLVQPGGSLRLSCAASGFNLSYSSMHWVRQAPGKGLEWVAYISPSYGYTSYADSVKGRFTISADTSKNTAYLQMNSLRAEDTAVYYCARAHWSSYVSGGWAYPHHSGMDYWGQGTLVTVSS
VL: DIQMTQSPSSLSASVGDRVTITCRASQSVSSAVAWYQQKPGKAPKLLIYSASSLYSGVPSRFSGSRSGTDFTLTISSLQPEDFATYYCQQSYASVLITFGQGTKVEIK
Consider B2, for which the binding result in assay [2] is listed as “binds”.

B3: Fab J2/F/R4 (purified) (Fab, V domains shown)
VH: EVQLVESGGGLVQPGGSLRLSCAASGFNLYSSYIHWVRQAPGKGLEWVAYISPSYGYTYYADSVKGRFTISADTSKNTAYLQMNSLRAEDTAVYYCARYYYSGWAVYAGMDYWGQGTLVTVSS
VL: DIQMTQSPSSLSASVGDRVTITCRASQSVSSAVAWYQQKPGKAPKLLIYSASSLYSGVPSRFSGSRSGTDFTLTISSLQPEDFATYYCQQWHHPPAPITFGQGTKVEIK
As for B3, in assay [2], the binding result was “binds”.

By EC50 is commonly meant the concentration needed to bring the measured effect to its halfway point.
